Drawing on patent US20210253648A1, this text covers Percentage of Positive Cells and iMFI for 1 substance.

In this assay the target is HLA-A2 MHC class I molecule on the surface of the target cells (no C2 peptide added) (human).

“TCR CMV-pp65-PE STAR multimer reagent (Soluble T-Cell Antigen Receptor STAR Multimer, Altor Bioscience)” returned a Percentage of Positive Cells of 0.96% and an iMFI of 70 RFU.
